Results on six substances are retold here after the supplement of paper PMC5998384.

Data set [1] concerns HeLa Kyoto. Nature of the data set: solubility change mitosis vs G1/S (difference of NP-40 vs SDS log2 ratios) (log2 ratio difference); higher = more soluble in mitosis.
In data set [2] the test system is HeLa Kyoto. Nature of the data set: melting temperature (median over replicates), in situ; higher = more thermally stable.
Data set [3] relates to HeLa Kyoto. Nature of the data set: solubility in G1/S (NP-40 vs SDS abundance) (log2 ratio); higher = more soluble. The following applies: cell cycle stage: G1/S.
Data set [4] relates to HeLa Kyoto. Put plainly: thermal stability score vs G1/S (z-score of summed log2 fold changes over temperatures); higher = more thermally stable than in G1/S.
[5] abbreviates: cell cycle stage: early G1 (4.5 h after nocodazole release).
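Wherever melting temperature (median over replicates), in situ is given: HeLa Kyoto cells synchronized by double thymidine or nocodazole block, proteins quantified by TMT10plex mass spectrometry, three independent biological replicates.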
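Wherever solubility change mitosis vs G1/S (difference of NP-40 vs SDS log2 ratios) is given: synchronized HeLa Kyoto cells (double thymidine block for G1/S, nocodazole release for mitosis), protein amounts in NP-40 versus SDS lysates quantified by mass spectrometry, three biological replicates.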
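Wherever solubility in G1/S (NP-40 vs SDS abundance) is given: HeLa Kyoto cells arrested at G1/S by double thymidine block, proteins quantified by TMT10plex mass spectrometry in mild NP-40 versus SDS extracts, three biological replicates.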
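Wherever thermal stability score vs G1/S (z-score of summed log2 fold changes over temperatures) is given: synchronized HeLa Kyoto cells, proteins quantified by TMT10plex mass spectrometry, three biological replicates, mitosis taken 0.5 h after nocodazole release, G1/S directly after double thymidine block.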

For the substance LACTB2, the “solubility change mitosis (log2)” value in data set [1] is -0.0335. Moreover, the melting temperature in data set [2] (cell cycle stage: G1/S) amounted to 57.7 °C; in data set [2] (cell cycle stage: mitosis) it was 56.1 °C. Also, in data set [3], the “solubility in G1/S (log2)” value is 0.418. Besides, the results for the thermal stability score in data set [4] (setting [5]) and in data set [4] (cell cycle stage: mitosis) were -2.61 and -0.348, respectively.
With “MGPGPSRAPRAPRLMLCALALMVAAGGCVVSAFNLDTRFLVVKEAGNPGSLFGYSVALHRQTERQQRYLLLAGAPRELAVPDGYTNRTGAVYLCPLTAHKDDCERMNITVKNDPGHHIIEDMWLGVTVASQGPAGRVLVCAHRYTQVLWSGSEDQRRMVGKCYVRGNDLELDSSDDWQTYHNEMCNSNTDYLETGMCQLGTSGGFTQNTVYFGAPGAYNWKGNSYMIQRKEWDLSEYSYKDPEDQGNLYIGYTMQVGSFILHPKNITIVTGAPRHRHMGAVFLLSQEAGGDLRRRQVLEGSQVGAYFGSAIALADLNNDGWQDLLVGAPYYFERKEEVGGAIYVFMNQAGTSFPAHPSLLLHGPSGSAFGLSVASIGDINQDGFQDIAVGAPFEGLGKVYIYHSSSKGLLRQPQQVIHGEKLGLPGLATFGYSLSGQMDVDENFYPDLLVGSLSDHIVLLRARPVINIVHKTLVPRPAVLDPALCTATSCVQVELCFAYNQSAGNPNYRRNITLAYTLEADRDRRPPRLRFAGSESAVFHGFFSMPEMRCQKLELLLMDNLRDKLRPIIISMNYSLPLRMPDRPRLGLRSLDAYPILNQAQALENHTEVQFQKECGPDNKCESNLQMRAAFVSEQQQKLSRLQYSRDVRKLLLSINVTNTRTSERSGEDAHEALLTLVVPPALLLSSVRPPGACQANETIFCELGNPFKRNQRMELLIAFEVIGVTLHTRDLQVQLQLSTSSHQDNLWPMILTLLVDYTLQTSLSMVNHRLQSFFGGTVMGESGMKTVEDVGSPLKYEFQVGPMGEGLVGLGTLVLGLEWPYEVSNGKWLLYPTEITVHGNGSWPCRPPGDLINPLNLTLSDPGDRPSSPQRRRRQLDPGGGQGPPPVTLAAAKKAKSETVLTCATGRAHCVWLECPIPDAPVVTNVTVKARVWNSTFIEDYRDFDRVRVNGWATLFLRTSIPTINMENKTTWFSVDIDSELVEELPAEIELWLVLVAVGAGLLLLGLIILLLWKCGFFKRARTRALYEAKRQKAEMKSQPSETERLTDDY [ITGA3]”, in data set [1], the “solubility change mitosis (log2)” value amounted to 0.0722. Also, the melting temperature worked out at 56.8 °C in data set [2] (cell cycle stage: G1/S) and 59.2 °C in data set [2] (cell cycle stage: mitosis). Moreover, the “solubility in G1/S (log2)” value in data set [3] is 0.0349. For the same substance, the thermal stability score in data set [4] (setting [5]) is -0.693; in data set [4] (cell cycle stage: mitosis), -1.42.
In the case of LSM14A, the “solubility change mitosis (log2)” value in data set [1] was -0.186. Also, the figures for the melting temperature in data set [2] (cell cycle stage: G1/S) and in data set [2] (cell cycle stage: mitosis) were 51.8 °C and 51.6 °C, respectively. For the same substance, the “solubility in G1/S (log2)” value in data set [3] was 0.131. Further, the thermal stability score in data set [4] (setting [5]) was -0.955; in data set [4] (cell cycle stage: mitosis), -1.78.
As for “MSYDRAITVFSPDGHLFQVEYAQEAVKKGSTAVGVRGRDIVVLGVEKKSVAKLQDERTVRKICALDDNVCMAFAGLTADARIVINRARVECQSHRLTVEDPVTVEYITRYIASLKQRYTQSNGRRPFGISALIVGFDFDGTPRLYQTDPSGTYHAWKANAIGRGAKSVREFLEKNYTDEAIETDDLTIKLVIKALLEVVQSGGKNIELAVMRRDQSLKILNPEEIEKYVAEIEKEKEENEKKKQKKAS [PSMA7]”, in data set [1], the “solubility change mitosis (log2)” value is -0.0151. The figures for the melting temperature in data set [2] (cell cycle stage: G1/S) and in data set [2] (cell cycle stage: mitosis) were 59 °C and 62.2 °C, respectively. For the same substance, in data set [3], the “solubility in G1/S (log2)” value amounted to 0.332. Also, the thermal stability score is -1.05 in data set [4] (setting [5]) and -2.15 in data set [4] (cell cycle stage: mitosis).
As to “MPNIVLFSGSSHQDLSQRVADRLGLELGKVVTKKFSNQETSVEIGESVRGEDVYIIQSGCGEINDNLMELLIMINACKIASSSRVTAVIPCFPYARQDKKDKSRAPISAKLVANMLSVAGADHIITMDLHASQIQGFFDIPVDNLYAEPAVLQWIRENIAEWKNCIIVSPDAGGAKRVTSIADRLNVEFALIHKERKKANEVDRMVLVGDVKDRVAILVDDMADTCGTICHAADKLLSAGATKVYAILTHGIFSGPAISRINNAAFEAVVVTNTIPQEDKMKHCTKIQVIDISMILAEAIRRTHNGESVSYLFSHVPL [PRPS2]”, in data set [1], the “solubility change mitosis (log2)” value was -0.112. The melting temperature amounted to 55.1 °C in data set [2] (cell cycle stage: G1/S) and 55.9 °C in data set [2] (cell cycle stage: mitosis). Moreover, the “solubility in G1/S (log2)” value in data set [3] was -0.014. Also, the thermal stability score in data set [4] (setting [5]) was 3.16; in data set [4] (cell cycle stage: mitosis) it was 2.12.
Take “MHRRGVGAGAIAKKKLAEAKYKERGTVLAEDQLAQMSKQLDMFKTNLEEFASKHKQEIRKNPEFRVQFQDMCATIGVDPLASGKGFWSEMLGVGDFYYELGVQIIEVCLALKHRNGGLITLEELHQQVLKGRGKFAQDVSQDDLIRAIKKLKALGTGFGIIPVGGTYLIQSVPAELNMDHTVVLQLAEKNGYVTVSEIKASLKWETERARQVLEHLLKEGLAWLDLQAPGEAHYWLPALFTDLYSQEITAEEAREALP [SNF8]”: the “solubility change mitosis (log2)” value in data set [1] came to 0.0161. In addition, the melting temperature in data set [2] (cell cycle stage: G1/S) worked out at 52.9 °C; in data set [2] (cell cycle stage: mitosis), 51.5 °C. Also, in data set [3], the “solubility in G1/S (log2)” value is 0.377. In addition, the thermal stability score in data set [4] (setting [5]) is -0.788; in data set [4] (cell cycle stage: mitosis) it was -0.397.
